Drawing on PMC12196904, this text covers binding for two sequences.

The target in the data set is T1, OsARF25 B3 domain (OsARF25 123-243-GST) (Oryza sativa) (UniProt Q2QM84).
T1 sequence: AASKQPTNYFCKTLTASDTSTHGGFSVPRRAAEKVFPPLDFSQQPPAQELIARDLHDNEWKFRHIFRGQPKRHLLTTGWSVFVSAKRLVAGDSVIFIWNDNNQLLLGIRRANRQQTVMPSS
Put plainly: EMSA. Particulars: 20 uL: 50 ng probe, 2 ug protein, 2 uL 10x buffer (100 mM Tris, 500 mM KCl, 10 mM DTT, pH 7.5) plus 1 uL each of 1 M KCl, 50% glycerol, 0.5 M EDTA. (A gel shift assay detects complexes by their altered migration in electrophoresis.)

On to “GAGTTTTATATACATACAGAGCACATGCGGCATCAATGAGCAACAGGGTTTGCATGCGTTGCTGCTGCTTGAGTTCTAGTATTAGTATTTTTATTTCATCTTAATGCTTGAGCCAATAGTTCCTGAGCTGAGACATGTGCAGAAGTATCTCGTCTCGGCCTTGATTGGTGACACTGCTCGTCATGATCCAAGGGGGTGCTGCCTCAAAATATTCACGGATCGAATTCAAGCTTTTCAATTCATCA (double strand) [proOsOFP04 probe]”, for which the binding entry is reported as “binds”. In the case of “TGATGAATTGAAAAGCTTGAATTCACTTCACATGCCGGCCACAATTACGGCGTTATTAGGCGGGACATGGGCATAGGAAAACCGGAAAGGTGTCCAAGGCGTTGCAGAGAATGTAGTGTGTCGGTCATAGGCTGCAAGCGAGTGCACTCCCACTTGCACCCAGGGATATATATTATCGTCATGCATGTGCCTTATGCTCTTGTCAAGCAATATTTTTTGGCAAGGCATGTGCTCTGTATGTATATAAAACTC (double strand) [proSG1 probe]”, the binding result is “binds”.
